Source: patent US20160311886A1, “Constructs Binding to Phosphatidylserine and Their Use in Disease Treatment and Imaging” (Board of Regents, The University of Texas System, priority 2005, published 2016)
Where two headings read alike, the source gives them in different places.

Legend:
[1] = Phospholipid specificity ELISA; type: binding
Procedure: The specificity of the antibodies was determined by ELISA using plates coated with the following phospholipids: PS, phosphatidylserine; PE, phosphatidylethanolamine; PI, phosphatidylinositol; PA, phosphatidic acid; PG, phosphatidylglycerol; PC, phosphatidylcholine; CL, cardiolipin; and SM, sphingomyelin.

bEnd.3 and ABAE cells = experiment: Binding to cultured endothelial cells and inhibition by liposomes; type: cell-based, mouse, bovine; conditions: quiescent conditions
Procedure: Endothelial cells were grown until they reached approximately 70% confluence. To induce PS exposure, cells were treated with H2O2 (200 μM) for 1 h at 37° C. Control and treated slides were washed with DPBS containing Ca^2+ and Mg^2+ and fixed with 0.25% of glutaraldehyde diluted in the same buffer. Excess aldehyde groups were quenched by incubation with 50 mM of NH4Cl for 5 min. To examine the effect of detergents and organic solvents on detection of phospholipids, some slides were pre-incubated with acetone (5 min) or with PBS containing 1% (v/v) Triton™ X-100.
Cells were washed with DPBS (containing Ca^2+, Mg^2+ and 0.2% (w/v) gelatin) and incubated with 1 μg/ml of biotinylated annexin V (Pharmingen, San Diego, Calif.) or with 1 μg/ml of 9D2 antibody. After 2 h of incubation, cells were washed with 0.2% gelatin buffer and were incubated with streptavidin-HRP (1:500 dilution). […] HRP activity was measured by adding O-phenylenediamine (0.5 mg/ml) and hydrogen peroxide (0.03% w/v) in citrate-phosphate buffer, pH 5.5. After 15 min, 100 μl of supernatant were transferred to 96 well plates, 100 μl of 0.18 M H2SO4 were added and the absorbance was measured at 490 nm. Alternatively, PS-positive cells were detected by addition of carbazole substrate, resulting in insoluble red-brownish precipitate. […]

Anti-PS ELISA = type: binding
Procedure: The anti-PS ELISA used in the present studies example is conducted as follows. Unless particular differences are specified, this is the format of the ELISA used throughout the studies of the present application.
The ELISA of the present example is exemplified using the antigen PS (P-6641 25 mg 10 mg/ml (solvent is Chloroform:MeOH 95:5) in 2.5 ml bottle). Other phospholipids can be used using the same protocol. The PS (or other phospholipids) stock solution should be aliquoted and stored in an airtight container at −30° C. The preferred 96 well plates are Dynatech U bottom Immulon 1 (from Dynatech Labs, Cat#011-010-3550).
The standard blocking buffer used in the present example is 10% bovine serum dissolved in PBS. Other blocking solutions are suitable, but any detergents should be excluded from block and wash solutions. The primary antibody is the test sample or admixture. […] The developing solutions are: 10 ml of 0.2M Na2PO4, 10 ml of 0.1M citric acid, one 10 mg tablet of OPD, and 10 μl of hydrogen peroxide. The stop solution is 0.18 M H2SO4.
The protocol of the present example entails coating 96-well plate with PS as follows: dilute the PS stock solution in n-hexane to 10 μg/ml and mix well. Add 50 μl to each well and allow this to evaporate for one hour. Add 200 μl of 10% serum (or other blocking buffer) to each well, cover and maintain at room temperature for 2 hours or overnight at 4° C. Wash the plate three times with PBS. Add the primary antibody (dilute in blocking buffer) and incubate for 2 hours at 37° C. Wash three times with PBS. […] Wash the plate three times with PBS. Develop the ELISA by adding 100 μl of developing solution to each of the wells, develop for 10 minutes, then add 100 μl of stop solution to each plate and read the O.D. at 490 nm.

[2] = Serum dependence of binding to PS
Procedure: The serum dependence or independence of the antibodies is also set forth in Table 2 (see also, Example XXX).
The 1B9, 2G7 and 7C5 antibodies behave essentially the same. These antibodies recognize only PS and require serum or serum proteins for binding to PS. The binding of 1B9, 2G7 and 7C5 to various phospholipids in the present example was assayed only in the presence of 10% bovine serum, whereas binding of the other antibodies was tested either in the absence or in the presence of serum.

[3] = mouse, in vivo, iv
[4] = test system: drug-resistant breast tumors; experiment: 3G4 and cisplatin against drug-resistant breast tumors; type: in vivo, mouse; conditions: treated after day 20
From the text: Mice were inoculated with drug-resistant breast tumors and treated after day 20.

dendritic cells = experiment: DC uptake of apoptotic tumor cells; type: cell-based; conditions: Fc(γ)R mediated internalization
From the text: The inventors therefore envision using the anti-PS antibodies of the present invention to enhance both […] and cellular anti-tumor immunity, and boost the efficacy of ATC based DC tumor vaccines.

[5] = Anti-PS ELISA in OVA or sera of different species; type: binding
Procedure: The assay was performed as follows (see also, Ran et al., 2005, specifically incorporated herein by reference). PS-coated Immunlon 1B microtiter plates were blocked overnight in 1% OVA (w/v). […] Dilutions were performed in 1% OVA or 10% non-heat inactivated sera from cow, human, rat or mouse. […] All ELISA studies were performed at least three times.

[6] = 3G4 toxicity studies in mice; type: in vivo, mouse
From the text: The following parameters were specifically examined.
Mice retain normal physical signs, bone marrow cellularity, white blood cell counts, histology and coagulation functions.

[7] = MW used for conversion: IgM 900 kDa, IgG 150 kDa, Annexin V 36 kDa, read-out: EC50

Q: Which results are given for “Annexin V: High affinity PS binding ligand; natural ligand binding anionic phospholipids and PE”?
A: Relative Strength of Reactivity on ELISA [1]: PS = PE = PI = PA > CL > PG; binding to non-permeabilized monolayers (bEnd.3 and ABAE cells): Neither 9D2 nor annexin V bound; EC50 (Anti-PS ELISA; [7]): 2.77 nM; EC50 (Anti-PS ELISA; dilutions of tissue culture supernatants): 0.100 µg/mL; Affinity vs. 3SB (−fold increased) (Anti-PS ELISA; from EC50 in nM): 0.18 fold; Binding vs. 3SB (−fold increased) (Anti-PS ELISA; from EC50 in μg/ml): 4.68 fold; Serum cofactor? [2]: No

B1: 3G4: Mouse IgG3 kappa monoclonal antibody to PS and anionic phospholipids; binding mediated by β2-glycoprotein I (antibody, listed as Mus musculus)
VH: MGWTWIFILILSVTTGVHSEVQLQQSGPELEKPGASVKLSCKASGYSFTGYNMNWVKQSHGKSLEWIGHIDPYYGDTSYNQKFRGKATLTVDKSSSTAYMQLKSLTSEDSAVYYCVKGGYYGHWYFDVWGAGTTVTVSSATTTAPSVYPLVP
VL: MDMRAPAQILGFLLLLFPGTRCDIQMTQSPSSLSASLGERVSLTCRASQDIGSSLNWLQQGPDGTIKRLIYATSSLDSGVPKRFSGSRSGSDYSLTISSLESEDFVDYYCLQYVSSPPTFGAGTKLELKRADAAPTVFIFGRIP
Q: Which binding specificity profile [1] does the source give for B1 here?
A: The binding specificity profile was “PS=PA=PI=PG>CL>>PE”.

Q: What about the Volume of distribution [3] of the same molecule?
A: Its Volume of distribution is 0.1 L/kg.

Q: What about the “half-life in the α-phase of clearance” value [3] of the same molecule?
A: The value was 3 h.

Q: And the “half-life in the β-phase of clearance” value [3]?
A: Its value is 120 h.

Q: What about the anti-tumor response [4] of the same molecule?
A: The anti-tumor response was “tumor growth was slowed”.

Q: And the “enhancement of DC uptake of apoptotic tumor cells” value (dendritic cells)?
A: The value was 300%.

Q: What about the EC50 (Anti-PS ELISA; [7]) of the same molecule?
A: The EC50 was 0.266 nM.

Q: And the “binding to PS” value ([5]; 10% mouse serum)?
A: The value was “did not bind PS”.

Q: What about the “binding to PS” value ([5]; 10% rat and human serum) of the same molecule?
A: Its value is “bound PS”.

Q: And the “binding to PS-coated microtiter plates” value ([5]; dilutions in 1% OVA, listed as 3G4 purified from SCM)?
A: Its value is “binds PS weakly”.

Q: What about the “binding to PS-coated microtiter plates” value ([5]; dilutions in 1% OVA, listed as 3G4 purified from SFM) of the same molecule?
A: The value was “no longer binds PS”.

Q: What about the “binding to PS-coated microtiter plates” value ([5]; dilutions in 10% FBS) of the same molecule?
A: Its value is “binds to PS-coated microtiter plates”.

Q: And the “binding to PS” value ([5]; hamster, ferret, guinea pig, rabbit and monkey serum)?
A: The value was “bound PS”.

Q: And the “Serum cofactor?” value [2]?
A: The value was “β2-glycoprotein I and Yes,”.

Q: And the “blood coagulation parameters (PT, APTT, D-dimer)” value ([6]; 100 μg IP three times a week)?
A: The value was “normal”.

Q: What about the toxicity ([6]; 1 mg purified antibody intraperitoneally) of the same molecule?
A: Its toxicity is “no toxicity was observed”.

Q: And the “physical signs of toxicity” value ([6]; BALB/c mice, 100 μg IP three times a week for 2 to 4 weeks)?
A: Its value is “No physical signs of toxicity have been observed”.

Q: What about the “physical signs of toxicity” value ([6]; single i.p. 2 mg, or 0.5 mg daily for 14 days) of the same molecule?
A: Its value is “showed no physical signs of toxicity”.

Q: And the “Bone marrow cellularity and composition” value ([6]; six injections, 100 μg)?
A: The value was “normal”.
